According to patent publication US20240109967A1 (University of Pennsylvania, published 2024):
Changes are numbered by the printed parent chain. Read-outs that look alike come from different tables or passages of the source. Each block holds one binder with its values, some of them ahead of it.

Assays:
[1] = target: T1, recombinant canine CTLA-4 extracellular domain protein (canine, UniProt Q9XSI1 36-161, biotin on the Avi tag (BirA ligase) in the ELISA, panning and interaction assays); test: scFv expression extract ELISA on cCTLA-4 (data not shown)
T1 construct: Cloned into pFUSE containing an HA tag, made in 293T cells; The SPR analyte is called soluble cCTLA-4 ECD, and biotinylation is not mentioned there; also called cCTLA-4; cCTLA-4 ECD
T1 chain: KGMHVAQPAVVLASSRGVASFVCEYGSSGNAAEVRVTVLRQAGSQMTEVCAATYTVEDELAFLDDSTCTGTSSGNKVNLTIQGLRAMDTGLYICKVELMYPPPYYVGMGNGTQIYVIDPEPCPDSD

[2] = target: T1, recombinant canine CTLA-4 extracellular …; test: ELISA; the axis is the amount of coated cCTLA-4, scFv fixed at 0.25 ug/ml
[3] = target: T2, human complement C1q (in normal human complement serum) (human, UniProt P02745 23-245; P02746 28-253; P02747 29-245); test: complement fixation ELISA: antibody titrated on captured cCTLA-4, C1q of human serum detected
T2 construct: also called human serum complement

[4] = target: T2, human complement C1q (in normal human …); test: complement fixation ELISA: antibody on captured cCTLA-4, human serum complement, anti-human C1q HRP
[5] = target: T1, recombinant canine CTLA-4 extracellular …; test: ELISA; the axis is the amount of CTLA4 per well, not the mAb concentration
[6] = target: T1, recombinant canine CTLA-4 extracellular …; test: ELISA; the axis is the amount of coated CTLA4, not the mAb concentration
[7] = target: T1, recombinant canine CTLA-4 extracellular …; test: SPR, full-length canine mAb and cCTLA-4
[8] = target: T1, recombinant canine CTLA-4 extracellular …; test: SPR, mAb captured on the chip, cCTLA-4 ECD as analyte
[9] = target: T1, recombinant canine CTLA-4 extracellular …; test: as above

T2 sequence (P02745 23-245 limits assumed, chain 1 of 3): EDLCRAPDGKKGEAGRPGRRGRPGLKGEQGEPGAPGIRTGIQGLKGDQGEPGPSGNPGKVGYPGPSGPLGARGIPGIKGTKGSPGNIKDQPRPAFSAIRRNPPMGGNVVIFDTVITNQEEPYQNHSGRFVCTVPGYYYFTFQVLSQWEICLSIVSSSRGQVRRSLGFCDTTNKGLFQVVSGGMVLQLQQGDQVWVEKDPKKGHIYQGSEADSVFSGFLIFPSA
T2 sequence (P02746 28-253 limits assumed, chain 2 of 3): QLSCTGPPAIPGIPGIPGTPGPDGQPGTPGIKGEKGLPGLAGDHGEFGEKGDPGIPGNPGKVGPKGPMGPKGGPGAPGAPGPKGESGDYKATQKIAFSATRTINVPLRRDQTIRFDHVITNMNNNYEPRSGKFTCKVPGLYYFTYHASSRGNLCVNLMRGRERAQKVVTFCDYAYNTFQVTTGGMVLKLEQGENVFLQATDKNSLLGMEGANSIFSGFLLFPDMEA
T2 sequence (P02747 29-245 limits assumed, chain 3 of 3): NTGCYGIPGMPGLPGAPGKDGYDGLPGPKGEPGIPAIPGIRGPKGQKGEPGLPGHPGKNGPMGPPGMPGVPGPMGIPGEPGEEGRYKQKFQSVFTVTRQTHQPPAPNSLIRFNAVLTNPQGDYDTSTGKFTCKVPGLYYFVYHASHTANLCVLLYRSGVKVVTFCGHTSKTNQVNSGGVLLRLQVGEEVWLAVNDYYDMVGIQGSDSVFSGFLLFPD

EC50 (read off the curve) [3]: ~0.5 ug/ml antibody
B2: A1mut2 full-length canine IgG3 (IgGC) mAb, HA-tagged (antibody)
heavy: EVQLVETGGDLVKPGGSLRLSCVASGFSFSSYAMNWVRQAPEKGLQLVGGINSGGSSTYYTDAVKGRFTISRDNAKNTVYLQMNSLRAEDTAVYYCAISNWAYWGQGTLVTVSSASTTAPSVFPLAPSCGSQSGSTVALACLVSGYIPEPVTVSWNSGSLTSGVHTFPSILQSSGLYSLSSMVTVPSSRWPSETFTCNVAHPATNTKVDKPVVKECECKCNCNNCPCPGCGLLGGPSVFIFPPKPKDILVTARTPTVTCVVVDLDPENPEVQISWFVDSKQVQTANTQPREEQSNGTYRVVSVLPIGHQDWLSGKQFKCKVNNKALPSPIEEIISKTPGQAHQPNVYVLPPSRDEMSKNTVTLTCLVKDFFPPEIDVEWQSNGQQEPESKYRMTPPQLDEDGSYFLYSKLSVDKSRWQRGDTFICAVMHEALHNHYTQKSLSHSPGKGGGSGGGSYPYDVPDYA
light: QAVLNQPASVSGSLGQRVTISCTGSSSDIGKSYVAWYQQLPGTGPRTLINVDGNRASGVPDRFSVSRSGNTATLTISGLQAEDEADYHCSSWDWSLHTYVFGSGTQLTILGQPKASPSVTLFPPSSEELGANKATLVCLISDFYPSGVTVAWKADGSPITQGVETTKPSKQSNNKYAASSYLSLTPDKWKSHSSFSCLVTHEGSTVEKKVAPAECS
notes: also called A1mut2 IgGC

EC50 (read off the curve) [3]: ~0.6 ug/ml antibody
B3: A1mut2 full-length canine IgG2 (IgGB) mAb, HA-tagged (antibody)
heavy: EVQLVETGGDLVKPGGSLRLSCVASGFSFSSYAMNWVRQAPEKGLQLVGGINSGGSSTYYTDAVKGRFTISRDNAKNTVYLQMNSLRAEDTAVYYCAISNWAYWGQGTLVTVSSASTTAPSVFPLAPSCGSTSGSTVALACLVSGYFPEPVTVSWNSGSLTSGVHTFPSVLQSSGLYSLSSMVTVPSSRWPSETFTCNVAHPASKTKVDKPVPKRENGRVPRPPDCPKCPAPEMLGGPSVFIFPPKPKDTLLIARTPEVTCVVVDLDPEDPEVQISWFVDGKQMQTAKTQPREEQFNGTYRVVSVLPIGHQDWLKGKQFTCKVNNKALPSPIERTISKARGQAHQPSVYVLPPSREELSKNTVSLTCLIKDFFPPDIDVEWQSNGQQEPESKYRTTPPQLDEDGSYFLYSKLSVDKSRWQRGDTFICAVMHEALHNHYTQESLSHSPGKGGGSGGGSYPYDVPDYA
light: B2 light
notes: also called A1mut2 IgGB

binding result [4]: no binding (tested: 10 ug/ml antibody)
B4: A1mut2 full-length canine IgG1 (IgGA) mAb (antibody)
heavy: EVQLVETGGDLVKPGGSLRLSCVASGFSFSSYAMNWVRQAPEKGLQLVGGINSGGSSTYYTDAVKGRFTISRDNAKNTVYLQMNSLRAEDTAVYYCAISNWAYWGQGTLVTVSSASTTAPSVFPLAPSCGSTSGSTVALACLVSGYFPEPVTVSWNSGSLTSGVHTFPSVLQSSGLYSLSSMVTVPSSRWPSETFTCNVVHPASNTKVDKPVFNECRCTDTPPCPVPEPLGGPSVLIFPPKPKDILRITRTPEVTCVVLDLGREDPEVQISWFVDGKEVHTAKTQSREQQFNGTYRVVSVLPIEHQDWLTGKEFKCRVNHIDLPSPIERTISKARGRAHKPSVYVLPPSPKELSSSDTVSVTCLIKDFYPPDIDVEWQSNGQQEPERKHRMTPPQLDEDGSYFLYSKLSVDKSRWQQGDPFTCAVMHETLQNHYTDLSLSHSPGKGGGSGGGSYPYDVPDYA
light: B2 light
notes: The HA tag is said to be appended to the carboxyl termini of the full-length IgGs and is placed here on the heavy chain; also called A1mut2 mAb; A1mut2 antibody

EC50 (read off the curve) [5]: ~0.9 pmol/well CTLA4
EC50 (read off the curve) [6]: ~0.2 pmol biotinylated CTLA4/well
Kd [7]: 1.5 nM
kon [7]: 160000 M⁻¹ s⁻¹
t1/2 [7]: 46 min
Kd [8]: 1.5 nM
koff [8]: 0.00025 s⁻¹
kon [8]: 160000 M⁻¹ s⁻¹
t1/2 [8]: 46 min
B6: B10 full-length canine IgG1 (IgGA) mAb (antibody)
heavy: B4 heavy with S28T, S31D, A33P, S57A, V93M, I98T, W101F, A102Q
light: QAVLNQPASVSAALGQRVTISCNTNIGSPYDVQWYQQLPGKSPKTIIYGNSNRPSGVPVRFSGSKSGSTATLTIAGIQAEDEADYYCQSYDDNVDGYVFGSGTQLTVLGQPKASPSVTLFPPSSEELGANKATLVCLISDFYPSGVTVAWKADGSPITQGVETTKPSKQSNNKYAASSYLSLTPDKWKSHSSFSCLVTHEGSTVEKKVAPAECS
notes: The HA tag is placed on the heavy chain; also called B10 mAb; B10 antibody

fold increase in binding over background [1]: > 20 fold
EC50 (read off the curve) [2]: ~0.6 pmol biotinylated cCTLA4
B8: B10 scFv (soluble, His and HA tagged) (scFv)
scFv: QAVLNQPASVSAALGQRVTISCNTNIGSPYDVQWYQQLPGKSPKTIIYGNSNRPSGVPVRFSGSKSGSTATLTIAGIQAEDEADYYCQSYDDNVDGYVFGSGTQLTVLGGGSSRSSSSGGGGSGGGGEVQLVETGGDLVKPGGSLRLSCVASGFTFSDYPMNWVRQAPEKGLQLVGGINSGGSATYYTDAVKGRFTISRDNAKNTVYLQMNSLRAEDTAMYYCATSNFQYWGQGTLVTVSSESPSPPNLTSGQAGQHHHHHHGAYPYDVPDYAS
notes: Canine scFv from panning round 3; also called clone B10

The remaining lines, values behind:

B1: D5 scFv (soluble, His and HA tagged) (scFv)
scFv: QPVLTQPPSVSAALGQRVTISCTGTATNVGGGYDVQWYQQFPGRPPKTIIYGNYNRPSGVPDRFSASTSGTTATLTISGLQAEDEANYYCSSWDNSLTAYVFGSGTQLTILGGGSSRSSSSGGGGSGGGGEVQLVETGGDLMKPGGSLRLSCVASGFTFSSYSMSWVRQAPEKGLQLVAGINSGGSSTYYTDAVKGRFTISRDNAKNTLYLQMNSLRDEDTAVYYCVISNWSYWGQGTLVTVSSESPSPPNLTSGQAGQHHHHHHGAYPYDVPDYAS
notes: Canine scFv from panning round 4; also called clone D5
fold increase in binding over background [1]: > 20 fold
EC50 (read off the curve) [2]: ~0.4 pmol biotinylated cCTLA4

B5: clone A1 full-length canine IgG1 (IgGA) mAb (antibody, V domains shown)
VH: EVQLVESGGDLVKPAGSLRLSCVASGFSFSSYAMNWVRQAPGKGLQWIAGINSGGSSTSHIDAIKGRFTISRDNAKNTLYLQMNSLRAEDTAVYYCAISNWAYWGQGTLVTVSS
VL: QAVLNQPASVSGSLGQRVTISCTGSSSDIGKSYVAWYQQLPGTGPRTLINVDGNRASGVPDRFSVSRSGNTATLTISGLQAEDEADYHCSSWDWSLHTYVFGSGTQLTILG
notes: Produced only at low levels; also called A1 mAb
EC50 (read off the curve) [5]: ~0.7 pmol/well CTLA4

B7: A1 scFv (soluble, His and HA tagged) (scFv)
scFv: QAVLNQPASVSGSLGQRVTISCTGSSSDIGKSYVAWYQQLPGTGPRTLINVDGNRASGVPDRFSVSRSGNTATLTISGLQAEDEADYHCSSWDWSLHTYVFGSGTQLTILGGGSSRSSSSGGGGSGGGGEVQLVESGGDLVKPAGSLRLSCVASGFSFSSYAMNWVRQAPGKGLQWIAGINSGGSSTSHIDAIKGRFTISRDNAKNTLYLQMNSLRAEDTAVYYCAISNWAYWGQGTLVTVSSESPSPPNLTSGQAGQHHHHHHGAYPYDVPDYAS
notes: Canine scFv from panning round 3; also called clone A1
fold increase in binding over background [1]: > 20 fold
EC50 (read off the curve) [2]: ~0.3 pmol biotinylated cCTLA4

B9: D5 full-length canine IgG1 (IgGA) mAb (antibody)
heavy: B4 heavy with V12M, S28T, A33S, N35S, G49A, V79L, A88D, A97V, A102S
light: QPVLTQPPSVSAALGQRVTISCTGTATNVGGGYDVQWYQQFPGRPPKTIIYGNYNRPSGVPDRFSASTSGTTATLTISGLQAEDEANYYCSSWDNSLTAYVFGSGTQLTILGQPKASPSVTLFPPSSEELGANKATLVCLISDFYPSGVTVAWKADGSPITQGVETTKPSKQSNNKYAASSYLSLTPDKWKSHSSFSCLVTHEGSTVEKKVAPAECS
notes: The HA tag is placed on the heavy chain; also called D5 mAb; D5 antibody
EC50 (read off the curve) [5]: ~0.7 pmol/well CTLA4
EC50 (read off the curve) [6]: ~0.2 pmol biotinylated CTLA4/well
Kd [9]: 1.5 nM
koff [9]: 0.00018 s⁻¹
kon [9]: 120000 M⁻¹ s⁻¹
t1/2 [9]: 64 min
Kd [7]: 1.5 nM
kon [7]: 120000 M⁻¹ s⁻¹
t1/2 [7]: 64 min
